Laboratory results published in patent publication US20150299296A1 (Chugai, published 2015).

T1: human FcγRIIb extracellular domain with C-terminal His tag (human, UniProt P31994 43-217)
T1 construct: extracellular domain; For crystals it was expressed with kifunensine and trimmed with Endo F1; also called FcgRIIb; FcγRIIb extracellular region
T1 sequence (looked up): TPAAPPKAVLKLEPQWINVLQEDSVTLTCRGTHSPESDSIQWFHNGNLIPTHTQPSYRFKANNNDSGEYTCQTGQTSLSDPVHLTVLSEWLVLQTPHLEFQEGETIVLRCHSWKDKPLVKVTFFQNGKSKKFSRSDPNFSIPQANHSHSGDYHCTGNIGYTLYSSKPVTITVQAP


The binders below were run against T1, human FcγRIIb extracellular domain with … (assay: SPR (Biacore): amount of FcγRIIb bound per captured antibody, relative to the pre-altered antibody GpH7-B3/GpL16-k0 = 100 (Reference Examples 2, 3 and 6)).

| binding result | Binder |
| --- | --- |
| binds | G237W (antibody, human IgG1, kappa, also called GpH7-B3 with G237W / GpL16-k0 (no P238D)) heavy chain: not shown light chain: DIVMTQSPLSLPVTPGEPASISCQASESLVHSNRNTYLHWYLQKPGQSPQLLIYKVSNRFSGVPDRFSGSGSGTDFTLKISRVEAEDVGVYYCSQNTHVPPTFGQGTKVEIERTVAAPSVFIFPPSDEQLKSGTASVVCLLNNFYPREAKVQWKVDNALQSGNSQESVTEQDSKDSTYSLSSTLTLSKADYEKHKVYACEVTHQGLSSPVTKSFNRGEC |
| binds | G237F (antibody, human IgG1, kappa, also called GpH7-B3 with G237F / GpL16-k0 (no P238D)) heavy chain: not shown light chain: DIVMTQSPLSLPVTPGEPASISCQASESLVHSNRNTYLHWYLQKPGQSPQLLIYKVSNRFSGVPDRFSGSGSGTDFTLKISRVEAEDVGVYYCSQNTHVPPTFGQGTKVEIERTVAAPSVFIFPPSDEQLKSGTASVVCLLNNFYPREAKVQWKVDNALQSGNSQESVTEQDSKDSTYSLSSTLTLSKADYEKHKVYACEVTHQGLSSPVTKSFNRGEC |
| binds | G237E (antibody, human IgG1, kappa, also called GpH7-B3 with G237E / GpL16-k0 (no P238D)) heavy chain: not shown light chain: DIVMTQSPLSLPVTPGEPASISCQASESLVHSNRNTYLHWYLQKPGQSPQLLIYKVSNRFSGVPDRFSGSGSGTDFTLKISRVEAEDVGVYYCSQNTHVPPTFGQGTKVEIERTVAAPSVFIFPPSDEQLKSGTASVVCLLNNFYPREAKVQWKVDNALQSGNSQESVTEQDSKDSTYSLSSTLTLSKADYEKHKVYACEVTHQGLSSPVTKSFNRGEC |
| binds | G237D (antibody, human IgG1, kappa, also called GpH7-B3 with G237D / GpL16-k0 (no P238D)) heavy chain: not shown light chain: DIVMTQSPLSLPVTPGEPASISCQASESLVHSNRNTYLHWYLQKPGQSPQLLIYKVSNRFSGVPDRFSGSGSGTDFTLKISRVEAEDVGVYYCSQNTHVPPTFGQGTKVEIERTVAAPSVFIFPPSDEQLKSGTASVVCLLNNFYPREAKVQWKVDNALQSGNSQESVTEQDSKDSTYSLSSTLTLSKADYEKHKVYACEVTHQGLSSPVTKSFNRGEC |
| binds | G237L (antibody, human IgG1, kappa, also called GpH7-B3 with G237L / GpL16-k0 (no P238D)) heavy chain: not shown light chain: DIVMTQSPLSLPVTPGEPASISCQASESLVHSNRNTYLHWYLQKPGQSPQLLIYKVSNRFSGVPDRFSGSGSGTDFTLKISRVEAEDVGVYYCSQNTHVPPTFGQGTKVEIERTVAAPSVFIFPPSDEQLKSGTASVVCLLNNFYPREAKVQWKVDNALQSGNSQESVTEQDSKDSTYSLSSTLTLSKADYEKHKVYACEVTHQGLSSPVTKSFNRGEC |
| binds | G237A (antibody, human IgG1, kappa, also called GpH7-B3 with G237A / GpL16-k0 (no P238D)) heavy chain: not shown light chain: DIVMTQSPLSLPVTPGEPASISCQASESLVHSNRNTYLHWYLQKPGQSPQLLIYKVSNRFSGVPDRFSGSGSGTDFTLKISRVEAEDVGVYYCSQNTHVPPTFGQGTKVEIERTVAAPSVFIFPPSDEQLKSGTASVVCLLNNFYPREAKVQWKVDNALQSGNSQESVTEQDSKDSTYSLSSTLTLSKADYEKHKVYACEVTHQGLSSPVTKSFNRGEC |
| binds | G237M (antibody, human IgG1, kappa, also called GpH7-B3 with G237M / GpL16-k0 (no P238D)) heavy chain: not shown light chain: DIVMTQSPLSLPVTPGEPASISCQASESLVHSNRNTYLHWYLQKPGQSPQLLIYKVSNRFSGVPDRFSGSGSGTDFTLKISRVEAEDVGVYYCSQNTHVPPTFGQGTKVEIERTVAAPSVFIFPPSDEQLKSGTASVVCLLNNFYPREAKVQWKVDNALQSGNSQESVTEQDSKDSTYSLSSTLTLSKADYEKHKVYACEVTHQGLSSPVTKSFNRGEC |

These binders were tested against T1, human FcγRIIb extracellular domain with … (assay: SPR).

| binding result | Binder |
| --- | --- |
| binds | IL6R-BP490/IL6R-L (antibody, human IgG1, kappa) heavy: QVQLQESGPGLVKPSETLSLTCAVSGHSISHDHAWSWVRQPPGEGLEWIGFISYSGITNYNPSLQGRVTISRDNSKNTLYLQMNSLRAEDTAVYYCARSLARTTAMDYWGEGTLVTVSSASTKGPSVFPLAPSSKSTSGGTAALGCLVKDYFPEPVTVSWNSGALTSGVHTFPAVLQSSGLYSLSSVVTVPSSSLGTQTYICNVNHKPSNTKVDKKVEPKSCDKTHTCPPCPAPELLGDDSVFLFPPKPKDTLMISRTPEVTCVVIDVAEEDGEVKFNWYVDGVEVHNAKTKPREEQYNSTYRVVSVLTVLHQDWLNGKEYKCKVSNKALPRPIEKTISKAKGQPREPQVYTLPPSRDELTKNQVSLTCLVKGFYPSDIAVEWESNGQPENNYKTTPPVLDSDGSFFLYSKLTVDKSRWQQGNVFSCSVMHEALHNHYTQESLSLSP light: not shown |
| binds | IL6R-BP494/IL6R-L (antibody, human IgG1, kappa) heavy: QVQLQESGPGLVKPSETLSLTCAVSGHSISHDHAWSWVRQPPGEGLEWIGFISYSGITNYNPSLQGRVTISRDNSKNTLYLQMNSLRAEDTAVYYCARSLARTTAMDYWGEGTLVTVSSASTKGPSVFPLAPSSKSTSGGTAALGCLVKDYFPEPVTVSWNSGALTSGVHTFPAVLQSSGLYSLSSVVTVPSSSLGTQTYICNVNHKPSNTKVDKKVEPKSCDKTHTCPPCPAPELLGDDSVFLFPPKPKDTLMISRTPEVTCVVVDVAEEDGEVKFNWYVDGVEVHNAKTKPREEQDNSTYRVVSVLTVLHQDWLNGKEYKCKVSNKALPRPIEKTISKAKGQPREPQVYTLPPSRDELTKNQVSLTCLVKGFYPSDIAVEWESNGQPENNYKTTPPVLDSDGSFFLYSKLTVDKSRWQQGNVFSCSVMHEALHNHYTQESLSLSP light: not shown |
| binds | IL6R-BP511/IL6R-L (antibody, human IgG1, kappa) heavy: QVQLQESGPGLVKPSETLSLTCAVSGHSISHDHAWSWVRQPPGEGLEWIGFISYSGITNYNPSLQGRVTISRDNSKNTLYLQMNSLRAEDTAVYYCARSLARTTAMDYWGEGTLVTVSSASTKGPSVFPLAPSSKSTSGGTAALGCLVKDYFPEPVTVSWNSGALTSGVHTFPAVLQSSGLYSLSSVVTVPSSSLGTQTYICNVNHKPSNTKVDKKVEPKSCDKTHTCPPCPAPELLGDDSVFLFPPKPKDTLMISRTPEVTCVVIDVAEEDGPVKFNWYVDGVEVHNAKTKPREEQDNSTYRVVSVLTVLHQDWLNGKEYKCKVSNKALPRPIEKTISKAKGQPREPQVYTLPPSRDELTKNQVSLTCLVKGFYPSDIAVEWESNGQPENNYKTTPPVLDSDGSFFLYSKLTVDKSRWQQGNVFSCSVMHEALHNHYTQESLSLSP light: not shown |
| binds | IL6R-BP503/IL6R-L (antibody, human IgG1, kappa) heavy: QVQLQESGPGLVKPSETLSLTCAVSGHSISHDHAWSWVRQPPGEGLEWIGFISYSGITNYNPSLQGRVTISRDNSKNTLYLQMNSLRAEDTAVYYCARSLARTTAMDYWGEGTLVTVSSASTKGPSVFPLAPSSKSTSGGTAALGCLVKDYFPEPVTVSWNSGALTSGVHTFPAVLQSSGLYSLSSVVTVPSSSLGTQTYICNVNHKPSNTKVDKKVEPKSCDKTHTCPPCPAPDLLGDDSVFLFPPKPKDTLMISRTPEVTCVVIDVAEEDGEVKFNWYVDGVEVHNAKTKPREEQDNSTYRVVSVLTVLHQDWLNGKEYKCKVSNKGLPRPIEKTISKAKGQPREPQVYTLPPSRDELTKNQVSLTCLVKGFYPSDIAVEWESNGQPENNYKTTPMVLDSDGSFFLYSKLTVDKSRWQQGNVFSCSVMHEALHNHYTQESLSLSP light: not shown |
| binds | IL6R-BP510/IL6R-L (antibody, human IgG1, kappa, also called IL6R-BP510/L6R-L) heavy: QVQLQESGPGLVKPSETLSLTCAVSGHSISHDHAWSWVRQPPGEGLEWIGFISYSGITNYNPSLQGRVTISRDNSKNTLYLQMNSLRAEDTAVYYCARSLARTTAMDYWGEGTLVTVSSASTKGPSVFPLAPSSKSTSGGTAALGCLVKDYFPEPVTVSWNSGALTSGVHTFPAVLQSSGLYSLSSVVTVPSSSLGTQTYICNVNHKPSNTKVDKKVEPKSCDKTHTCPPCPAPELLGDDSVFLFPPKPKDTLMISRTPEVTCVVIDVAEEDGPVKFNWYVDGVEVHNAKTKPREEQYNSTYRVVSVLTVLHQDWLNGKEYKCKVSNKALPRPIEKTISKAKGQPREPQVYTLPPSRDELTKNQVSLTCLVKGFYPSDIAVEWESNGQPENNYKTTPPVLDSDGSFFLYSKLTVDKSRWQQGNVFSCSVMHEALHNHYTQESLSLSP light: not shown |
| binds | IL6R-BP491/IL6R-L (antibody, human IgG1, kappa) heavy: QVQLQESGPGLVKPSETLSLTCAVSGHSISHDHAWSWVRQPPGEGLEWIGFISYSGITNYNPSLQGRVTISRDNSKNTLYLQMNSLRAEDTAVYYCARSLARTTAMDYWGEGTLVTVSSASTKGPSVFPLAPSSKSTSGGTAALGCLVKDYFPEPVTVSWNSGALTSGVHTFPAVLQSSGLYSLSSVVTVPSSSLGTQTYICNVNHKPSNTKVDKKVEPKSCDKTHTCPPCPAPELLGDDSVFLFPPKPKDTLMISRTPEVTCVVIDVAEEDGEVKFNWYVDGVEVHNAKTKPREEQDNSTYRVVSVLTVLHQDWLNGKEYKCKVSNKALPRPIEKTISKAKGQPREPQVYTLPPSRDELTKNQVSLTCLVKGFYPSDIAVEWESNGQPENNYKTTPPVLDSDGSFFLYSKLTVDKSRWQQGNVFSCSVMHEALHNHYTQESLSLSP light: not shown |
| binds | IL6R-BP499/IL6R-L (antibody, human IgG1, kappa) heavy: QVQLQESGPGLVKPSETLSLTCAVSGHSISHDHAWSWVRQPPGEGLEWIGFISYSGITNYNPSLQGRVTISRDNSKNTLYLQMNSLRAEDTAVYYCARSLARTTAMDYWGEGTLVTVSSASTKGPSVFPLAPSSKSTSGGTAALGCLVKDYFPEPVTVSWNSGALTSGVHTFPAVLQSSGLYSLSSVVTVPSSSLGTQTYICNVNHKPSNTKVDKKVEPKSCDKTHTCPPCPAPDLLGDDSVFLFPPKPKDTLMISRTPEVTCVVIDVAEEDGEVKFNWYVDGVEVHNAKTKPREEQDNSTYRVVSVLTVLHQDWLNGKEYKCKVSNKALPRPIEKTISKAKGQPREPQVYTLPPSRDELTKNQVSLTCLVKGFYPSDIAVEWESNGQPENNYKTTPLVLDSDGSFFLYSKLTVDKSRWQQGNVFSCSVMHEALHNHYTQESLSLSP light: not shown |
| binds | IL6R-BP498/IL6R-L (antibody, human IgG1, kappa) heavy: QVQLQESGPGLVKPSETLSLTCAVSGHSISHDHAWSWVRQPPGEGLEWIGFISYSGITNYNPSLQGRVTISRDNSKNTLYLQMNSLRAEDTAVYYCARSLARTTAMDYWGEGTLVTVSSASTKGPSVFPLAPSSKSTSGGTAALGCLVKDYFPEPVTVSWNSGALTSGVHTFPAVLQSSGLYSLSSVVTVPSSSLGTQTYICNVNHKPSNTKVDKKVEPKSCDKTHTCPPCPAPDLLGDDSVFLFPPKPKDTLMISRTPEVTCVVIDVAEEDGEVKFNWYVDGVEVHNAKTKPREEQYNSTYRVVSVLTVLHQDWLNGKEYKCKVSNKALPRPIEKTISKAKGQPREPQVYTLPPSRDELTKNQVSLTCLVKGFYPSDIAVEWESNGQPENNYKTTPLVLDSDGSFFLYSKLTVDKSRWQQGNVFSCSVMHEALHNHYTQESLSLSP light: not shown |
